In the supplement of paper PMC9170038:

Test system: K4 kissing-loop RNA reporter
Experiment: apparent KD of K4 kissing-loop reporter; higher = weaker reporter binding
Conditions: Eterna round: R107
Procedure: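 RNA-MaP round R107: designed RNA switches with theophylline, tryptophan, arginine or FMN aptamers are transcribed on-chip within common flanks. They are titrated with a labelled K4 kissing-loop RNA reporter in RNA-MaP buffer (100 mM Tris pH 7.5, 80 mM KCl, 4 mM MgCl2), without ligand or with the indicated ligand. Median apparent KD per design.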

[1] = input ligand: theophylline 20 uM
[2] = input ligand: tryptophan 2.4 mM
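Also: bound reporter read as fluorescence of individual clusters on recovered sequencing chips by microscopy, with normalized cluster intensities fitted with a binding model.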

Row | Sequence | apparent KD of K4 kissing-loop reporter (input ligand: FMN 200 uM) | apparent KD of K4 kissing-loop reporter (input ligand: arginine 13.2 mM) | apparent KD of K4 kissing-loop reporter (input ligand: none) | apparent KD of K4 kissing-loop reporter [1] | apparent KD of K4 kissing-loop reporter [2]
1 | UGUAUGGACUGAAGGAGCGGUAUAUAAACUGAGUGAUGUUCGGCAGAUAAAGGCGCAAGCCACCAGGUAGGUCGCAGUCCAUACU [KL-SSArg B2] | 453 nM | 207 nM | 381 nM | 390 nM | 342 nM
2 | UGGAUAUAGUGAUGUUAUAUAGAGAUGGAUACCAGCGAAGAGAAUUGCCCUUGGCAGCCGAAAGCAGUAUCAUUAGAGAAGAAUG [#19 K4 Theophylline A Exclusion] | 291 nM | 252 nM | 271 nM | 251 nM | 255 nM
3 | CGUGGUGCUCGCCAGCUGUGCGAGCGGUGGGAGGAUAUGUCGCGAGACAGAAGGCCCAGUGAUGUUGGGCAGGCUCGUAGAUCAA [Orbemaed] | 152 nM | 118 nM | 121 nM | 133 nM | 116 nM
4 | CAAAACGAGUGAUGUUCGGACAACAACGUUAAGGAUAUACUUCUCUGUAGAAGGUAACAGUAUUUAUAUUUCAUCAACGAAAAUG [theeternabot_exclusion_KL_FMN_A_12] | 213 nM | 183 nM | 280 nM | 248 nM | 181 nM
5 | UACUGGGCGAGUGAUGUUUGCUCAUGUGAUACCAGUGCCAUCCAACACCCUUGGCAGCAUGCGGGCAGUGAUGUUGUCCAUGGAA [Exclusion Theophylline A GF10] | 629 nM | 597 nM | 667 nM | 645 nM | 640 nM
6 | AAUGUGCAGGGAAGGAGCGUAGUCCAGUGCUGUUGGAGUUAAAUACCAGUGAUGUUGGUUAUACAGGUAGGUCGCCCUAAAGCGC [whbob_Ex_Arginine_B_2th160] | 141 nM | 176 nM | 158 nM | 211 nM | 129 nM
7 | CAGAACUUGUAUACAGGGUAUGUAAGAGAUACCAGUCAAAUUAAAGACCCUUGGCAGCUCAGGCGAGUGAUGUUCGCAGGCUAAC [Exclusion Theophylline A GF 18] | 103 nM | 118 nM | 115 nM | 116 nM | 99 nM
8 | UGUACCGAGUCAGGAUAUCAUAAUAAUCGAGUGAUGUUCGAAUAACGACUGACAAAGUCGGUCGAUUGAGAAGGGACUUGGUACU [FmnBS 7 #SwitchBubble #StaticStem] | 150 nM | 342 nM | 444 nM | 362 nM | 378 nM
9 | AAGGUGAUCCUCGAUACCAGCUCAAAAUGAGUGAUGUUCAUGAAAGCCUGGAAACAGGCGAGCCCUUGGCAGCGAGUUACAUCAA [KL-SSTheoB8] | 204 nM | 162 nM | 162 nM | 134 nM | 154 nM
10 | AAUAAAAUCACGGCCGCCACUGAUGCUAAUAUUAGCAGUGAUGUUGCUAUGUAGAUUUUAUUUAACAGGACCGGGUGAAUAUUUA [JR_SSTryptoB_Sub025] | 198 nM | 124 nM | 162 nM | 170 nM | 269 nM
11 | AAUCCUAACGGAGUGAUGUUCCGUAGCGAUACCAGCCAUUGCGAUGGCCCUUGGCAGCGCUAUAAGCAUUGCUAGUAAGGGCCAA [Theo A Ex t7] | 167 nM | 148 nM | 168 nM | 163 nM | 159 nM
12 | AAGACUUGCAUCGAUACCAGCCCAGUGAUGUUGGGCUGCUCUCCAUGGGUGCCAGACACGGGCCCUUGGCAGCGAGGUAAGGCCC [Soveri] | 129 nM | 110 nM | 113 nM | 109 nM | 106 nM
13 | UGCGCUGUGUACUGUAAUGUUAUGCGGGAUACCAGAGUCUUUUUAUUCCCUUGGCAGCUUGAGUGAUGUUUGAUGCCGUUCUUGU [plpkmullin] | 481 nM | 327 nM | 504 nM | 452 nM | 401 nM
14 | GGUGUUGUUUGUGCUGUUUUCCUCGUUCCUCGAGGACCGGUACGGCCGCCACUCGAGUGAUGUUUGGGUAGCGAUCCUUGUUAGU [Bdazzled - #7 Exc. Tryptophan A] | 336 nM | 226 nM | 341 nM | 264 nM | 441 nM
15 | CGCAGUGAUGUUGCGAAUAUAAUUACGGAAGGAGCGCGUGAAAACGCAGGUAGGUCGCCGUUUGGUAUGAUGGAAACAUCGUACC [Arginine A K4 10] | 140 nM | 125 nM | 147 nM | 115 nM | 117 nM
16 | GGAUAGGAUAGAGGAUAUGGACUAGGCAAGAAUAACUUGUCUAGUAAAUCCAUGAGGAGUGAUGUUCCAGAAGGCUGUCCUAUCG [MatMod 3 - Jieux - Exclusion - FMN B] | 514 nM | 200 nM | 226 nM | 224 nM | 185 nM
17 | AAUCGAGUGAUGUUCGAUGUAGUGCAUUCAGAGGAUAUAGGAUGGGCUAGAAGGCUGAAAAGUGCUUCGAGUGAUGUUCGAAGAU [Exclusion FMN A GF 4] | 47.1 nM | 49 nM | 76.7 nM | 49.7 nM | 56 nM
18 | UGAUACCAGACGGCCGCCACUAGGACCGGGAGUGAUGUUCCAAAAUUAAAAUACUCGGCCGCCACUAGGACCGGGUCUGGUAUCU [TrypBX 25 #DoubleAptamer #SwitchBubble] | 225 nM | 137 nM | 162 nM | 205 nM | 75.4 nM
19 | GGUAGCAUGGCGGCCGCCACUUCAUAUGGAGUGAUGUUCCAGCAUCUUAUAAGACUGAGGUGAGGAAGGACCGGGCCAUGCUACC | 635 nM | 561 nM | 577 nM | 615 nM | 189 nM
20 | AGACUACCACACUGUCAAUAGACAGUGUACUAGGAUAUGCUGAUAAGCAGAAGGAGUGAUGUUCCUCGGUAGUCAAUAAAAUAAU [FmnAX 13 U28+C67] | 220 nM | 300 nM | 286 nM | 350 nM | 276 nM
21 | CUGCCGUUUACAGAUACCAGACUAAUAACGGCAGCACAGAAUGUGAGUGAUGUUCGCAUAGUCCCUUGGCAGCUGUAUAACAGUA [Theo B Ex t3] | 219 nM | 199 nM | 227 nM | 287 nM | 191 nM

Row | Sequence | apparent KD of K4 kissing-loop reporter (input ligand: FMN 200 uM) | apparent KD of K4 kissing-loop reporter (input ligand: arginine 13.2 mM) | apparent KD of K4 kissing-loop reporter (input ligand: none) | apparent KD of K4 kissing-loop reporter [1] | apparent KD of K4 kissing-loop reporter [2]
22 | GCCGUACGCAUGGAUACCAGUCUUUCGCGACUGGACAUGGAGUGAUGUUUCGUGAUGCUAGACCCUUGGCAGCCAUGCGUACGGC | 233 nM | 163 nM | 206 nM | 234 nM | 201 nM
23 | UUGAGCCUGACGUAAGUCAGGCUCUGCGAGCGAGGACCGGUACGGCCGCCACUCGGUGCAGUGAUGUUGCAUGGCCGCAAGGCCG [#2 Exclusion - Tryptophan A Attempt #15 (HarryS)] | 278 nM | 257 nM | 363 nM | 259 nM | 339 nM
24 | CUUUUACAGUCGGCCGCCACUGACAGCACUUCAAAGACAGUAUAAGGGUAGUGAUGUUACUUUAUCAGGACCGGGACUACCUAAC [theeternabot_sameState_KL_Trp_B_3] | 215 nM | 121 nM | 205 nM | 279 nM | 358 nM
25 | UGUUUUUACUGAAGGAGCGGCAAUUGAUACGUAGAUAUAGUGAUGUUAUAUAAGAUAGAGAGCCAGGUAGGUCGCAGAGUGUUUC [ExArgB.aA] | 250 nM | 195 nM | 194 nM | 194 nM | 172 nM
26 | GUACCAGUGAUGUUGGUAGGCGAGCGGGAUACCAGCCAAGACUCAGGCCCUUGGCAGCCCACAUAUCCCACGUAGGUAGUAGCUC [Same State - Theophylline A (Freestyle 17)] | 96 nM | 103 nM | 105 nM | 110 nM | 92.9 nM
27 | AGCGUCUGAAGAGGAUAUGACCAGUGAUGUUGGUUACUACCUCAAAUUAGUGUCGCGCCAAAAUCGUCAGAAGGCUUCGGCGCGC [Ussoes] | 135 nM | 92 nM | 98.6 nM | 96.7 nM | 92.9 nM
28 | UUGUUUAACUGAAGGAGCGGCAAUUGAUACGUAGAUAUAGUGAUGUUAUAUAAGAUAGAGAGCCAGGUAGGUCGCAGAGGUGUUU [ExArgB.R] | 231 nM | 227 nM | 246 nM | 219 nM | 190 nM
29 | UAUGUACACGGGUAGUUGUACAUCGAGGAAGGAGCGUGCGCAGGCACAGGUAGGUCGCCUCAGCGCACGAGUGAUGUUCGUGGGC [Xexegeus] | 276 nM | 170 nM | 257 nM | 216 nM | 247 nM
30 | UAAGAAUAAGUAGCAGUGAUGUUGCUACUACGAGGACCGGUACGGCCGCCACUCGAAUACGAGUGGAAGUAGCAACUACCACUCA [(H1)-(H2)-(Trp1)-(Trp2)-(T)'-(H)'-(T)''_Design7] | 114 nM | 96.2 nM | 125 nM | 88 nM | 135 nM
31 | GGCAUCCAUGGACCUAGUGAUGUUAGGUACCGAGGACCGGUACGGCCGCCACUCGGCCAUGGAUGCCGCAAUCGGAAACGAUUGC | 406 nM | 243 nM | 408 nM | 460 nM | 345 nM
32 | GGCCAAAGAGAGUGAUGUUCUCAAUAUGAAGGAGCGCCCGAAAGGGCAGGUAGGUCGCAUAACGGCCACCUACGAAAAGUAGGAA [#SwitchBubble 4 #K4Early] | 91.3 nM | 96.6 nM | 94.5 nM | 109 nM | 96.5 nM
33 | UUAAUAAUUCAAGGAUAUGUUUUCUAUUUCGAGUGAUGUUCGGUAUUAAUAAAUUUAAUAGAUUAUACAGAAGGUGAUGGAUAGU [Cynwulf-mod#5] | 108 nM | 101 nM | 84.2 nM | 99.1 nM | 65.8 nM
34 | UGGAGUUGACGAAAAGUCAACUCCCGAGAAGGAGCGGACGAAAGUCCAGGUAGGUCGCUCGCUACCAGUGAUGUUGGUACUCAAA | 127 nM | 182 nM | 156 nM | 192 nM | 135 nM
35 | AGAUGGAAUAGAAGGAGCGGCGCCAGUGAUGUUGGAUGCCGCGGGUGAAUCAGAUCAUAGUGCCAGGUAGGUCGCUAUUUCAGCG [Anedin] | 113 nM | 101 nM | 106 nM | 116 nM | 112 nM
36 | AAGCAGUCCCUCGAAGCCAUCGAAGAUGGGCGAGGACCGGUACGGCCGCCACUCGGAGUGAUGUUCCGAAGACUGCAAAAUAAAA [MatMod 3 - Jieux - Exclusion - Tryptophan A] | 367 nM | 316 nM | 192 nM | 273 nM | 185 nM
37 | GGUGACAGCCAGGAGUGAUGUAUAGAAUAGCGAGGACCGGUACGGCCGCCACUCGUGAAGAGAAAGGAGUGAUGUUCCGUAAUGG [Kazoo C2] | 224 nM | 178 nM | 193 nM | 308 nM | 57 nM
38 | GGCACGGGCUCGGCCGCCACUCCCGCGGGUCGAAAGGUCCGCUACUGAGUGAUGUUCGGUUGGAGGAGGACCGGGAGCCCGUGCC [#2 Exclusion - Tryptophan B Attempt #23 (HarryS)] | 130 nM | 91.6 nM | 108 nM | 99.9 nM | 98.4 nM
39 | AAUUACCUAGUGAUGUUGGGAAUAAUAUAACGAGGACCGGUACGGCCGCCACUCGAGGUCCUAAUUAAGAACGCGAAAGCGAAGA [Tryptophan A Exclusion; Euphoria Solution] | 94.4 nM | 60.5 nM | 93.1 nM | 66.8 nM | 189 nM
40 | GGAUCCACCAGUGAUGUUGGAGAAAACUCCAAGGAUAUGACGAAAGUCAGAAGGUGGUAGACUGGGCAAAGUCCGGUCGGAUCCA [FmnA10 G66] | 3150 nM | 68.5 nM | 144 nM | 49.9 nM | 355 nM
41 | AAGCAGUCACUCGACGCCAUCGAAGAUGGGCGAGGACCGGUACGGCCGCCACUCGGAGUGAUGUUCUGAAGACUGCAAAAUAAAA [MatMod 7 - Jieux - Exclusion - Tryptophan A] | 235 nM | 166 nM | 153 nM | 115 nM | 160 nM
42 | GGAAAUUGAUCAACGCAGUGAUGUUGCGAUACCAGACACAAAGCCGUCCCUUGGCAGCGCGGGACAUUAAUGGAUCUAUGGGUUC [theeternabot_exclusion_KL_Theo_A_26] | 68.5 nM | 113 nM | 68.2 nM | 119 nM | 66.8 nM
